The source of these data is patent publication US20220112276A1 (Janssen / Centocor, published 2022).

B1: 01E04R3LS His-tagged VHH (VHH)
VHH: EVQLVESGGGLVQAGDSLRLSCAASGRTFTTYVMGWFRQAPGKDREFVATITWSGSTNYKYYADPVKGRFTISRDNAKNTVYLQMNSLKPEDTAVYYCTSSTVVTDPRKLNEYAYWGQGTLVTVSS
B2: 01F04R2LS His-tagged VHH (VHH)
VHH: EVQLVESGGGLVQTGGSLRLSCAASGRTFSSYAMGWFRQAPGKEPERDFVAALRWSNDRTYYKYYADSVKGRFTISRDNAKNTVYLQMNTLKPEDTAVYYCAGGNYFSDPRVDKEYNYWGQGTQVTVSS
B3: 01F09R3 His-tagged VHH (VHH)
VHH: QVQLVESGGGLAQAGGSLTLSCAASGTAAGIDVMGWYRQTPGNSREFVARIFSNDVTHYADSVTGRFTLSRTQDKNTVSLQMNSLKPDDTGVYYCNARIWTGSTTVDYWGQGTQVTVSS
B4: 01A07R3LS His-tagged VHH (VHH)
VHH: QVQLVESGGGLVQAGDSLRLSCAASGRTFPTYAMGWFRQAPGKEREFVATIRWSGSTQYKYYADFVKGRFTISRDNAKNTVYLQMDSLKPEDTAVYYCAATTLLGDPRALNEYAYWGQGTQVTVSS
B5: 01G09R3LS His-tagged VHH (VHH)
VHH: B4 VHH with Q1E, G105T, E112A
B6: 01G07R3 His-tagged VHH (VHH)
VHH: QVQLVESGGGLVQAGDSLRLSCAASGRTLSFDTYAMGWFRQAPGKEREFVASIDWSGGTTYYADSVKGRFTVTRDNAKNTVTLRMNSLKPADTAVYYCAAAQYYRSGTSFPANYWGQGTLVTVSS
B7: 01D09R3 His-tagged VHH (VHH)
VHH: QVQLVESGGGLVQAGGSLRLSCAASGRTFSVYAMGWFRQAPGKERQFVAAITWSGGSTSYADSVKGRFTISRDNAKNTVYLQMNILKPEDTAVYYCAAATNPYFSDYYPDLKYEFDYWGQGTLVTVSS
B8: 01G05R2LS His-tagged VHH (VHH)
VHH: QVQLVESGGGLVQAGDSLALSCAGSGDTFSNYAMGWFRQAPGKEREFVADISWYSANIGYADSVKGRFTISRDNAKNMVTLRMNSLKPEDTAVYYCAADRNHWPVKGDYWGQGTQVTVSS
B9: 01E03R3 His-tagged VHH (VHH)
VHH: QVQLVESGGGLVQTGGSLRLSCAASGRTFSVYRVGWFRQAPGKEREFVAAVIWSGASTYKYAADSVKGRFTISRDNAENTVYLQMNSLKPEDTAVYYCAADPLGLPGPDVRVEGGYRHWGQGTLVTVSS
B10: 01G03R3L His-tagged VHH (VHH)
VHH: QVQLVESGGGSVQAGGSLRLSCAASGRTFSNYAMGWFRQAPGKEREFVAGISRSGGSTYSADSVKGRFTISRDNAKNTVYLQMNSLKPEDTAVYYCAADGLDYALGFRGDYWGQGTLVTVSS
B11: 01F05R2LS His-tagged VHH (VHH)
VHH: QVQLVESGGGLVQAGGSLRLSCAASGSIFAINGMGWYRQAPGKQRELVAVITRGGSTNYADSVKGRFTISRDNAKNTVSLQMNSLKPEDTAVYYCAATGVLAGWAAGDGMDYWGKGTLVTVSS
B12: 01F12R2 His-tagged VHH (VHH)
VHH: EVQLVESGGGLVQPGGSLRLSCAASGRTFSSYTMGWFRQAPGEEREFVSAISWSSDGTYYKYYTDTVKGRFTISRDNAETTVHLQMNSLKPEDTAVYYCAASSSGTYGDPRSEREYRYWGQGTLVTVSS
B13: 01D02R3LS His-tagged VHH (VHH)
VHH: QVQLVESGGGLVQAGDSLTLSCAASGRSVGFDTYGMAWFRQAPGKEREFVASIAYNGETTSYADSVQGRFTVTRENAKNTIALRMNGLKPDDTAVYYCAAAQYYLTGTSFPAKFWGQGTLVTVSS
B14: 01D04R3LS His-tagged VHH (VHH)
VHH: EVQLVESGGGLVQAGGSLRLSCAASGRTFRSYAMGWFRQAPGKEREFVADISWRGGRLYYADSVKGRFTISRDNAKNTVYLQMNSLKPEDTAVYYCAATGDQPAFTTAQGMGAMLEYDYWGQGTLVTVSS
B15: 01E05R2 His-tagged VHH (VHH)
VHH: QVQLVESGGGLVQAGGSLRLSCAASGRAFSSGRMGWFRQAPGKEREFVAAISWSGHTTYKYYADSVKGRFTISRENAKNTVSLQMNSLKPEDTAVYYCAARQSLVAGGDPRGQSEYDYWGQGTLVTVSS
B16: 01G04R3 His-tagged VHH (VHH)
VHH: QVQLVESGGGLVQAGGSLRLSCAASGRTFSVYGMGWFRQAPGQERAFVAAISWSDGSTYYADSVKGRFTISRDNAKNTMYLQMNSLKPEDTAVYFCAADLTGWGLDADVSEYDYWGQGTQVTVSS
B17: 02B11R3 His-tagged VHH (VHH)
VHH: EVQLVESGGGLVQAGGSLRLSCAASGRTFSPYGMGWFRQTPGKERAFVAAVDWNDGSTYYSDSVKGRFTISRDNAKNTVYLQMNSLKSEDTAVYYCAADLTGWGLDADVSEYDYWGQGTLVTVSS
B18: 01E10R3 His-tagged VHH (VHH)
VHH: QVQLVESGGGLVQSGGSLRLSCAASGRTFSDYAMGWFRQAPGKERELVAAITWNGGSTYYADSVKGRFTISRDNAKNTVDLQMNSLKPEDTAVYYCAADPLNSDSAGTYDYWGQGTLVTVSS
B19: 01F03R2LS His-tagged VHH (VHH)
VHH: EVQLVESGGGLVQAGDSLRLSCAASGRTGSSGAMGWFRQGPGKEREFVAALMWRNTVTYKYYEDSVKGRFTISRDNAKNTAYLQMNSLKPEDTAVYYCAADPDTYGDPRNSGAYDYWGQGTLVTVSS
B20: 01A07R3 His-tagged VHH (VHH)
VHH: EVQLVESGGGLVQTGESLRLSCAASGRAFSDLRMAWFRQVPGKEREFVAAVEWRGSSRYYYSADSVKGRFTISRTSPKGETYLQMNGLKPEDTAVYYCAAVSPVVGDPRNSDTYNYWGQGTQVTVSS
B21: 01F04R3LS His-tagged VHH (VHH)
VHH: EVQLVESGGGLVQAGGSLRLSCAASGRTFSRYAMGWFRQAPGKEREFVAAIAWSGGAIYYADFVKGQFTISRDNAKNTVDLEMNRLKPEDTAVYYCGSTRDPRVGDKKFYDYWGQGTQVTVSS
B22: 01E02R3LS His-tagged VHH (VHH)
VHH: EVQLVESGGGLVETGGSLRLSCAASGRTESTYTMAWFRQAPGKERERVATISFSGSTTTYLASVQGRFTISRDGAKNTIFLQMNGLKPEDTAVYYCALDTRRRVGSSPRFYDYWGQGTLVTVSS
B23: 01E01R3LS His-tagged VHH (VHH)
VHH: QVQLVESGGGLVQAGGSLRLSCAASGRSFSSYNMGWFRQAPGKERDLVAVVTWSGGGTSYADSVKGRFTIARDNANARLYLEMTSLKPEDTAIYYCAATQDWYGGTRAFRAASFHSWGQGTQVTVSS
B24: 01H03R2L His-tagged VHH (VHH)
VHH: B23 VHH with Q1E, Q13R, A71S, R110H, Q122L

Positions count from the first letter of the chain named.

The target of this assay is T1, recombinant human pIgR (hpIgR) (human, UniProt P01833 19-638, limits assumed).
T1 construct: probably the ECD
T1 sequence (P01833 19-638 limits assumed): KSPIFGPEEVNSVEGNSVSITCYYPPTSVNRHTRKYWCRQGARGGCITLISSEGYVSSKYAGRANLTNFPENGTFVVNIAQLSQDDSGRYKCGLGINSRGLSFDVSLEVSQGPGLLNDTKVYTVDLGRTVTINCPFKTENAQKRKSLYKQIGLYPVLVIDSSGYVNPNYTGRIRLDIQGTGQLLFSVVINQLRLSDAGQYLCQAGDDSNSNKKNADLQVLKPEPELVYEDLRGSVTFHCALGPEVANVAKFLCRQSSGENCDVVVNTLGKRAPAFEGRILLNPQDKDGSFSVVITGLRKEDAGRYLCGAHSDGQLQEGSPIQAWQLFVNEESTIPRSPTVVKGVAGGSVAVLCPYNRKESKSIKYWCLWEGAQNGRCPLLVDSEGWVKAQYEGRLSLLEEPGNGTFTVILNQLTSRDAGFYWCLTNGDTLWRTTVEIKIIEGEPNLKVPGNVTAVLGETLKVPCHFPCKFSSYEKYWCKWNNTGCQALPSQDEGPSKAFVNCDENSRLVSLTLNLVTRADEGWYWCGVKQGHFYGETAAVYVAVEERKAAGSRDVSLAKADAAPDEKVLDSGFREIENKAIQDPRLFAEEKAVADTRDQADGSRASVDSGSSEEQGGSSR
The assay can be described thus: ELISA, periplasmic VHH, BSA subtracted. The method, boiled down: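 His-tagged VHH in periplasmic extracts (osmotic shock, non-suppressor E. coli) were tested by ELISA for binding to pIgR. Bound nanobody was detected with polyclonal anti-alpaca VHH antibody in the initial screen and anti-VHH antibody on retest. Signal on BSA, run in parallel, was subtracted from the pIgR signal.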
On the technique in general: An ELISA detects its analyte on a solid surface through an enzyme-linked reagent.
Turning to B1, the “ELISA (OD)” value stood at 2.13 OD.

In the case of B2, the “ELISA (OD)” value is 2.09 OD.

As to B3, the “ELISA (OD)” value was 1.85 OD.

Regarding B4, the “ELISA (OD)” value stood at 0.48 OD.

B5: the “ELISA (OD)” value was determined as 1.9 OD.

With B6, the “ELISA (OD)” value is 2.19 OD.

For the molecule B7, the “ELISA (OD)” value was 0.55 OD.

For B8, the “ELISA (OD)” value came to 2.15 OD.

On to B9, for which the “ELISA (OD)” value was determined as 1.07 OD.

As for B10, the “ELISA (OD)” value amounted to 0.74 OD.

Turning to B11, the “ELISA (OD)” value came to 2.4 OD.

Regarding B12, the “ELISA (OD)” value worked out at 2.12 OD.

B13: the “ELISA (OD)” value was determined as 2.45 OD.

Take B14: the “ELISA (OD)” value worked out at 2.06 OD.

For the molecule B15, the “ELISA (OD)” value stood at 2.1 OD.

As for B16, the “ELISA (OD)” value was found to be 0.73 OD.

As to B17, the “ELISA (OD)” value was 1.35 OD.

B18: the “ELISA (OD)” value was 1.96 OD.

Regarding B19, the “ELISA (OD)” value came to 2.14 OD.

On to B20, for which the “ELISA (OD)” value amounted to 1.68 OD.

Consider B21, for which the “ELISA (OD)” value is 1.98 OD.

Take B22: the “ELISA (OD)” value was 1.69 OD.

For the molecule B23, the “ELISA (OD)” value turned out to be 2.2 OD.

On to B24, for which the “ELISA (OD)” value was found to be 2.18 OD.
